Reference: the supplement of paper PMC10567573
± gives the standard deviation.

Test: protein stability index of a GFP-peptide fusion (GPS, HEK-293T) (PSI 1-6); higher = more stable
Conditions: c terminus: a fixed tail appended
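Note: 24-mer peptide tiles fused after GFP, lentivirally expressed, FACS-sorted into six equal bins by GFP/DsRed ratio, decoded by Illumina sequencing, PSI is the read-weighted mean bin number.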

Sequence	protein stability index (treatment: DMSO)	protein stability index (treatment: MLN4924 1 uM, 8 h)
VTPKKSPPPKTNLTPGQSDSAKRE [FAN1]	5.22 ± 0.33	5.35 ± 0.33
VTVKDETATMKDLEAEVKDTTRVE [R3HDM1]	5.33 ± 0.17	5.56 ± 0.053
VVAYLALAALSATISFRIYKSVLQ [RTN1]	2.7 ± 0.66	2.87 ± 0.43
VVILPCQHNLCRKCASDIFQASNP [TRIM55]	2.48 ± 0.34	2.38 ± 0.22
VVKKIALREIRMLKQLKHPNLVNL [CDKL4]	2.2 ± 0.76	2.63 ± 0.11
VVTSAREHIYDLRSLENYHFVDEH [CLINT1]	2.85 ± 0.51	3.15 ± 0.45
VWERPARSALWCLGLNAAFWFFAL [RETREG3]	2.62 ± 0.77	2.61 ± 0.2
VYLHGDDHQDSDEFCRNTLCAPEV [FAF2]	4.13 ± 0.22	4.23 ± 0.15
WCRDRLLGHREPSAHPVEVFSFDL [TMEM175]	2.39 ± 0.3	2.25 ± 0.39
WDPSPRGCFTLPRSEPIRPIDPAA [DVL3]	3.98 ± 0.23	3.77 ± 0.073
WERKEGGGGISCVLQDGCVFEKAG [CPOX]	3.82 ± 0.12	3.84 ± 0.24
WNHIRLQRTAKGKPVLAKDSSNPY [AASDHPPT]	2.9 ± 0.39	3.19 ± 0.3
WRDSKGKDKEYAEIIRKQVSATKA [UBE2R2]	3.9 ± 0.34	4.07 ± 0.46
WRNLGVQQSQGWVHYMIHEPEPHI [CKS1B]	2.24 ± 0.23	2.28 ± 0.18
WTNGSGLALCQRYYHRGHVDPAND [MCOLN1]	3.11 ± 0.12	3.12 ± 0.21
WVYSGRRGVHCWVCDESVRKLSSA [PRIM1]	2.51 ± 0.84	3.04 ± 0.39
YAAIVAVVAVHVVLALFVYVAWNE [VMA21]	2.08 ± 0.31	2.1 ± 0.11
YADFGPLNLAMVYRYCCKLNKKLK [CDC14A]	2.9 ± 0.58	2.56 ± 0.43
YDWLFFSPDKDSIMNIEPAILVMH [INTS3]	2.61 ± 0.52	2.16 ± 0.21
YGQGRKIAEVCCTSIVYATEKKQT [KCTD10]	2.83 ± 0.34	3.1 ± 0.21

Sequence	protein stability index (treatment: DMSO)	protein stability index (treatment: MLN4924 1 uM, 8 h)
YHMFQREKVEVQLPELFHKIGVGA [KCNAB2]	2.52 ± 0.59	2.39 ± 0.45
YHQGCLVNPTGNLPMWSNQTWNNS [NANOGP8]	2.5 ± 0.36	2.57 ± 0.066
YKMDHRRRGIALIFNHERFFWHLT [CASP6]	2.4 ± 0.72	2.2 ± 0.47
YKRSMDPGYPKMIAHDFPGIGHKV [MMP1]	2.55 ± 0.21	2.77 ± 0.094
YLNHVRAASPQDLAGGYTSSLACH [MNAT1]	2.85 ± 0.39	2.95 ± 0.34
YLPQCSYFKCVQKDIQPYMRRMVA [CCND2]	2.11 ± 0.28	2.01 ± 0.33
YNVSPLSWNVAVKFLMARKFDVLR [PTPN9]	3.02 ± 0.62	2.46 ± 0.88
YPCVLATEGFTSGRHYWEVEVGDK [TRIM39]	2.59 ± 0.62	3.27 ± 0.68
YPHFSHRPSTLQAASTPQAEEDWT [OAS1]	4.52 ± 0.27	4.76 ± 0.23
YPSVILRDPLQTDTLQNDYFAIKQ [ETS1]	3.1 ± 0.41	3.3 ± 0.21
YQAGKPDALTKLEQGEPLWTLEDE [ZNF649]	4.57 ± 0.17	4.6 ± 0.18
YQTEQSLRLLVESDINSIRRILDE [KRT34]	2.85 ± 0.18	2.97 ± 0.42
YSDKNAKLTKESYPVVVAESMYGD [TENT5D]	4.39 ± 0.054	4.43 ± 0.22
YSFYMLTCIDMDWKVLTWLRYTLW [HACD3]	2.63 ± 0.85	2.65 ± 0.36
YSKFHGLEMCVDARTFGNEARFIR [KMT2E]	2.21 ± 0.17	2.25 ± 0.22
YSPSQYALQYAGDGSVLLIPRTMA [NFE2L1]	2.11 ± 0.22	2.26 ± 0.22
YTEQELKPLTLEALGHLGNDDSAD [DLC1]	5.43 ± 0.12	5.43 ± 0.16
YTPDLPRADVDHAIEKAFQLWSNV [MMP1]	2.6 ± 0.73	2.86 ± 0.77
YVPSSESFIIYLKNIVIADFVMSL [P2RY14]	2.89 ± 0.96	2.74 ± 0.78
YVYKAASEGKVLTLAALLLNRSES [FEM1B]	2.78 ± 0.69	2.62 ± 0.56
